Measured values as given in patent publication US10772928B2, “Modulation and detection of a neuronal alternative splicing regulatory network for treatment and diagnosis of neurological disorders” (The Governing Council of the University of Toronto, priority 2014, dated 2020).

Target: T1, nSR100 (Mus musculus, UniProt Q8BKA3)
T1 construct: host or cells: mouse N2A cells
T1 sequence (Q8BKA3 1-608): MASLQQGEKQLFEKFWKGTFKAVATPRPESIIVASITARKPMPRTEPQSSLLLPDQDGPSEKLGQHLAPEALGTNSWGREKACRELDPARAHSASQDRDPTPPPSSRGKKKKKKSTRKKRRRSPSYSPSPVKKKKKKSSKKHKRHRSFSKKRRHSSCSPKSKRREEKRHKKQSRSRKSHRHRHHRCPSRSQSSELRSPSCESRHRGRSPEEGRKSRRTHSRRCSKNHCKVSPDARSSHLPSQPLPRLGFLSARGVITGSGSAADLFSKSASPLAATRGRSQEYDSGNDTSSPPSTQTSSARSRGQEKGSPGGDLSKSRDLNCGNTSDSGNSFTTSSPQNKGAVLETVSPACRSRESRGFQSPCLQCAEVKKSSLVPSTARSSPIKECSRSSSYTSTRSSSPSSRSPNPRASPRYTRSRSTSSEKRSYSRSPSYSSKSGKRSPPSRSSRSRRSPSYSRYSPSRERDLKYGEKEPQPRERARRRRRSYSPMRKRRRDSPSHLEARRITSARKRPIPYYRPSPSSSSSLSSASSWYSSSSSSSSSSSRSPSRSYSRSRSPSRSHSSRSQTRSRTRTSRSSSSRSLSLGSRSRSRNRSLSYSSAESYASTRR
Assay: AP-MS nSR100 interaction partners from mouse N2A cells (Table 5)
Assay type: binding
Conditions: for AvgP (average of the SAINT scores) / MaxP (maximal SAINT score): bait Srrm4; for FoldChange between the prey Avg spectra of the bait and control purifications: bait Srrm4, 0.1 added to prevent division by 0; for AvgSpec (average number of spectra per replicate): bait Srrm4, 2 replicates; for Spectra (number of spectra for the prey in the purification of the bait): AP-MS; for SpecSum: bait Srrm4, sum of spectra over 2 replicates

[1] = bait Srrm4, biological replicate 1 (first number of the cell)
[2] = bait Srrm4, biological replicate 2 (second number of the cell)

Text: By applying affinity purification coupled to mass-spectrometry (AP-MS), several interaction nSR100 partner proteins were detected that provide insight into mechanisms of post-translational regulation of nSR100 levels.

Substance	AvgP (average of the SAINT scores)	MaxP (maximal SAINT score)	FoldChange between the prey Avg spectra of the bait and control purifications	AvgSpec (average number of spectra per replicate)	Spectra (number of spectra for the prey in the purification of the bait) [1]	Spectra (number of spectra for the prey in the purification of the bait) [2]	SpecSum
Cdc42bpb	1	1	90	9	6	12	18
Ap2m1	1	1	9.12	36.5	31	42	73
Bub3	1	1	9.5	19	17	21	38
Son	0.98	1	45	4.5	2	7	9
Snrpc	0.99	1	11	5.5	5	6	11
Ywhae	1	1	3.57	25	24	26	50
Nudt21	0.97	1	4	14	16	12	28
Prrc2a	0.95	0.95	20	2	2|2	2|2	4
Pcbp1	0.99	1	11.33	17	16	18	34
Hspa2	1	1	390	39	41	37	78
Gpatch8	0.95	0.95	20	2	2|2	2|2	4
Srrm2	1	1	5.37	51	47	55	102
Snrnp70	1	1	5.1	51	48	54	102
Magohb	1	1	21	10.5	10	11	21
Idh2	1	1	6.6	16.5	17	16	33
Csnk2b	0.99	1	8.5	8.5	10	7	17
Pnn	1	1	25.33	38	33	43	76
Ddx39b	1	1	150	15	15|15	15|15	30
Rfc2	0.95	0.95	20	2	2|2	2|2	4
Clk3	0.97	0.99	25	2.5	2	3	5
Prpf8	1	1	3.36	60.5	63	58	121
Ap2a2	1	1	6.16	117	97	137	234
Wdr48	1	1	45	4.5	3	6	9
Cdk1	1	1	14.25	57	47	67	114
